The results in this text go back to the nanobody polyreactivity screen of Harvey et al. (2022).

A short description of this data set: yeast display, Sf9 membrane polyspecificity reagent, FACS + sequencing; frameworks hold sequencing errors. The method, boiled down: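 After 36–48 hours of galactose induction, yeast (Saccharomyces cerevisiae BJ5465) displaying a synthetic nanobody library were stained at 4 °C for 1 hour with 10% biotinylated, detergent-solubilized Sf9 membrane reagent. Streptavidin microbeads enriched the stained cells before FACS sorting into low and high (top ~1%) gates on anti-HA and streptavidin fluorescence. Each clone's polyreactivity label reflects its gate of origin.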
Take “QVQLVESGGGLVQAGGSLRLSCAASGSTFVYYDMGWYRQAPGKERELVAAITNGGNTYYADSVKGRFTISRDNAKNTVYLQMNSLKPEDTAVYYCAKLYTDAIVWSAYDYWGQGTQVTVSS”: the “polyreactivity (PSR sort gate)” value is “low polyreactivity”.

Consider “QVQLVESGGGLVQAGGSLRLSCAASGSTFWAYVMGWYRQAPGKERELVAAISSGGTTNYADSVKGRFTISRDNAKNTVYLQMNSLKPEDTAVYYCAAEYPSVYYERFDYWGQGTQVTVSS”, for which the “polyreactivity (PSR sort gate)” value is “low polyreactivity”.

On to “QVQLVESGGGLVQAGGSLRLSCAASGSTFWEKAIGWSRQAPGKEMELAAAISWGGASTYYADSVKGRFTISRDNAKNTVYLQMNSLKPEDTAVYYCAADQTSTQFLSSYGGYNYWGQGTQVTVSS”, for which the “polyreactivity (PSR sort gate)” value was “low polyreactivity”.

For “QVQLVESGGGLVQAGGSLRLSCAASGSTFWFNAMGWYRQAPGKERELVAAIDSGGGTYYADSVKGRFTISRDNAKNTAYLQMNSLKPEDTAVFYCNASHPPKAELDYWGQGTQVTVSS”, the “polyreactivity (PSR sort gate)” value is on record as “low polyreactivity”.

With “QVQLVESGGGLVQAGGSLRLSCAASGSTFWFYAMGWYRQAPGKERELVAVISNSGSTYYADSVKGRFTISRDNAKNTVYLQMNSLKPEDTAVYYCNRYYPVPYDYWGQGTQVTVSS”, the “polyreactivity (PSR sort gate)” value is recorded as “low polyreactivity”.

Turning to “QVQLVESGGGLVQAGGSLRLSCAASGSTFWHYAMGWYRQAPGKERELVAAISSGGGRTYYADSVKGRFTISRDNAKNTVYLQMNSLQPEDTAVYYCAARYYFYDYWGQGTQVTLSS”, the “polyreactivity (PSR sort gate)” value is recorded as “high polyreactivity”.

Regarding “QVQLVESGGGLVQAGGSLRLSCAASGSTFWKYVKGWYRQAPGKERELVAAISNSGVNTYYADSVKGRFTISRDNAKNTVYLQMNSLKTEDTAVYYCAADRCGYEYWGQGTQVTVSS”, the “polyreactivity (PSR sort gate)” value was “high polyreactivity”.

Take “QVQLVESGGGLVQAGGSLRLSCAASGSTFWLYTMGCYRQAPVKERELVAAISTRGGSTYYADSVKGRFTISRDNAKNTVYVQMHSLKPEDTAVYYCAAYPTYGEYDYWGQGSQVTVSS”: the “polyreactivity (PSR sort gate)” value was “high polyreactivity”.

For the sequence “QVQLVESGGGLVQAGGSLRLSCAASGSTFWLYVMGWYRQAPGKERELVAAISSGGITKYADSVKGRFTISRDNAKNTVYLQMNSLKPEDTAVYYCAVGVLGYRRVTGYYWGQGTQVTVTS”, the “polyreactivity (PSR sort gate)” value is recorded as “high polyreactivity”.

In the case of “QVQLVESGGGLVQAGGSLRLSCAASGSTFWNAMGWYRQAPGKERELVAAIRLSGGSTYYADSVKGRFTISRDNAKNTVYLQMNRLKPEDTAVYYCATDLVFVSSDLQETAYYWGQGTQVTVSS”, the “polyreactivity (PSR sort gate)” value is “low polyreactivity”.

Consider “QVQLVESGGGLVQAGGSLRLSCAASGSTFWNYAMGWYRQAPGKERELVAAITRGSSTNYADSVKGRFTISRDNAKNTVYLQMNSLKPEDTAVYYCANPVGRWSAFYYWGQGTQVTVSS”, for which the “polyreactivity (PSR sort gate)” value is “high polyreactivity”.

Consider “QVQLVESGGGLVQAGGSLRLSCAASGSTFWNYAMGWYRQAPGKERELVASIDSSDGRTYYADSVKGRFTSSRDNAKNTVFLQMTRQKPEDTAVDYCAKDAYAVELRPYSKLSSRADGYWGHGTQVTVSS”, for which the “polyreactivity (PSR sort gate)” value was “low polyreactivity”.

Consider “QVQLVESGGGLVQAGGSLRLSCAASGSTFWPYAMGRYRPAPGKERELGATIRGGGTSTYYADSVKGRVTISRDNAKNTVYLQMNSLKPEDTAGYYCAARGFYTGSYPGYYYWGQGTQVTVSS”, for which the “polyreactivity (PSR sort gate)” value is on record as “high polyreactivity”.

Turning to “QVQLVESGGGLVQAGGSLRLSCAASGSTFWPYAMGWYIQAPGKERELVAAITSSGGSTYYADSVKGRFTISRDNAKNTVYLQMNSLKAEDTAVYYCAADWSNLGAYDYWGQGTQVTVSS”, the “polyreactivity (PSR sort gate)” value is “low polyreactivity”.

For “QVQLVESGGGLVQAGGSLRLSCAASGSTFWPYAMGWYRQAPGKERELVAAITTRDGSTYYADSVKGRFTISRDNAKNTVYLQMNSLKPEDTAVYYCAAKSSRYDYYYWGQGTQVTVSS”, the “polyreactivity (PSR sort gate)” value was “high polyreactivity”.

For the sequence “QVQLVESGGGLVQAGGSLRLSCAASGSTFWPYAMGWYRQAPVKERELVADISRRCGSTYYADSVKGRFTISRDNAKNTVYLQMNSLKPEDTAVYYCAKYPSAYVDSDVTYDMAYWGQGTQVTVSS”, the “polyreactivity (PSR sort gate)” value is recorded as “low polyreactivity”.

Take “QVQLVESGGGLVQAGGSLRLSCAASGSTFWPYTMGWYRQAPGKERELVAAITLRGGTTYYADSVKGRFTISRDNEKNTVYLQMNSLKPEDTAVYYCAADVAYVEYDYWGQGTQVTVSS”: the “polyreactivity (PSR sort gate)” value is “low polyreactivity”.

Turning to “QVQLVESGGGLVQAGGSLRLSCAASGSTFWQYALGWYRQAPGKEREFVAAISSRGGSTYYADSVKGRFTISRDNAKNTVYLQMNSLKPEDTAVYYCAAQNYFAFIRTYRYVHRPTYYYWGQGTQVTVSS”, the “polyreactivity (PSR sort gate)” value was “high polyreactivity”.

As to “QVQLVESGGGLVQAGGSLRLSCAASGSTFWRNAMGWYRQAPGKERELVAAISRGGSTNYADSVKGRFTISRDNAKNTVYLQMNSLKPEDTAVYYCAARYYYRYNYWGQGTQVTVSS”, the “polyreactivity (PSR sort gate)” value is “high polyreactivity”.

“QVQLVESGGGLVQAGGSLRLSCAASGSTFWRYAMGWYRQAPGKERELVAAISRSGGSTYYADSVKGRFTISRDNAKNTVYLQMNSLKPEDTAVYYCAAQYGGKYKLYSDSYAMDYWGQGTQVTVSS”: the “polyreactivity (PSR sort gate)” value is “high polyreactivity”.

Consider “QVQLVESGGGLVQAGGSLRLSCAASGSTFWSNAMGWYRQAPGKERELVAAISISDGNTYYADSVKGRFTISRDNAKNTVYLQMNSLKPEDTAVYYCATVGSEDGDPGFDYWGQGTQVTVSS”, for which the “polyreactivity (PSR sort gate)” value was “low polyreactivity”.

Regarding “QVQLVESGGGLVQAGGSLRLSCAASGSTFWSNAMGWYRQAPGKERELVAAITRGGSTNYADSVKGRFTISRDNAKNTVYLQMNSLKPEDTAVYFCAATYVPYGRRLYAYYYWGQGTQVTVSS”, the “polyreactivity (PSR sort gate)” value is given as “high polyreactivity”.

On to “QVQLVESGGGLVQAGGSLRLSCAASGSTFWSNTMGWYRQAPGKERELVATITDSGGITYYADSVKGRFTISRDNAKNTVYLQMNSLKPEDTAVYYCNVRKTWYGYSVTGRYDYWGQGTQVTVSS”, for which the “polyreactivity (PSR sort gate)” value is given as “low polyreactivity”.

As to “QVQLVESGGGLVQAGGSLRLSCAASGSTFWSNVMGWYRQAPGKERELVSAISYGGVTTSYADSVKGRFTISRDNAKNTVYLQMNSLKPEDTAVYYCAAYNGAHSHFGYWGQGTQVTVSS”, the “polyreactivity (PSR sort gate)” value is on record as “low polyreactivity”.

In the case of “QVQLVESGGGLVQAGGSLRLSCAASGSTFWSYTMGGYRQAPGKERELVAAISRSGGSTYYADSVKGRFTISRDNAKNTVYLQKNSLKPEDTAVYYCAASDRYGSRYYYWGQGTQVTVSS”, the “polyreactivity (PSR sort gate)” value is given as “high polyreactivity”.

Regarding “QVQLVESGGGLVQAGGSLRLSCAASGSTFWVNAMGWYRQAPGKERELVAAITYSGGSTHYADSVKGRFTISRDNAKNTVYLQMNSLKPEDTAVYYCNAEHWADYDYWGQGTQVTVSS”, the “polyreactivity (PSR sort gate)” value is listed as “low polyreactivity”.

For the sequence “QVQLVESGGGLVQAGGSLRLSCAASGSTFWVYDMGWYRQAPGKERELVAAISRRGGRTYYADSVKGRFTISRDNAKNTVYLQMNSLKPEDTAVYYCNRRYTQPDTRQWYDYWGQGTQVTVSS”, the “polyreactivity (PSR sort gate)” value was “low polyreactivity”.

In the case of “QVQLVESGGGLVQAGGSLRLSCAASGSTFWVYTKGWYRQAPGKERELVAAITGSTGNTYYADSVKGRFTISRDNPKNTVYFQMNSLKPEDTAVYYCSADSYWSYRYPMGYDNWGQGSQVTVSS”, the “polyreactivity (PSR sort gate)” value is on record as “low polyreactivity”.

Take “QVQLVESGGGLVQAGGSLRLSCAASGSTFWWYAMGWYRQAPGKEREFVAAITSTGGSTYYADSVKGRFTISHDNAKNTVYLQMNSLKPEDTAVYYCAVRLYLEMDYWGQGTQVTVSS”: the “polyreactivity (PSR sort gate)” value was “high polyreactivity”.

For the sequence “QVQLVESGGGLVQAGGSLRLSCAASGSTFWYAMGWYRQAPGKERELVAAITARGGRTYYADSVKGRFTISRDNAKNTVYLQMNSLKPEDTAVYYCARLSYAGGQWIIGKYDYWGQGTQVTVSS”, the “polyreactivity (PSR sort gate)” value is given as “high polyreactivity”.

Turning to “QVQLVESGGGLVQAGGSLRLSCAASGSTFWYNTMGWYRQAPGKERELVAAISWSGGSTYADSVKGRFTISRDNAKNTVYLQMNSLKPEDTAVYYCNADDYYRYDYWGLGTQVTVSS”, the “polyreactivity (PSR sort gate)” value was “low polyreactivity”.

As to “QVQLVESGGGLVQAGGSLRLSCAASGSTFWYYAMGWSRQAPGKERELVAAIRRGGSTYYADSVKGRFTISRDNAKNTVYLQMNSLKPVDTAVYYCAAERPYKTFGYGYWGQGTQVTVSS”, the “polyreactivity (PSR sort gate)” value was “high polyreactivity”.

As for “QVQLVESGGGLVQAGGSLRLSCAASGSTFWYYAMGWYRQAPGKERELVAAITSSGSTYYADSVKGRFTISRDNAKNTVYLQMYSLKPEDTAVYYCAAEQWYGYASYDYWGQGTQVTVSS”, the “polyreactivity (PSR sort gate)” value is listed as “high polyreactivity”.

As for “QVQLVESGGGLVQAGGSLRLSCAASGSTFWYYAMGWYRQAPGKERELVAAITSVDSTYYADSVKGRFTISRDNANNTVYLQMNSLKPEDTAVYYCAADLPWEDGYYFYSGYTEYDYWGQGTQVTVSS”, the “polyreactivity (PSR sort gate)” value is “low polyreactivity”.

Take “QVQLVESGGGLVQAGGSLRLSCAASGSTFWYYAMGWYRQAPGKERELVASITYSGGSTYYADSVKGRFTISRDNAKNTVYLQMNSLKPEDTAVYYCAAEGYYSNYHFWGQGTQVTVSS”: the “polyreactivity (PSR sort gate)” value was “low polyreactivity”.

Take “QVQLVESGGGLVQAGGSLRLSCAASGSTFWYYVMGWYRQAPGKERELVAAISIVGSTYYADSVKGRFTISRDNAKNTVYLQMNSLKPEDTAVYYFNAGYFRGSNAIKVRLTYDHWGQGTQVTVSS”: the “polyreactivity (PSR sort gate)” value is reported as “low polyreactivity”.

For “QVQLVESGGGLVQAGGSLRLSCAASGSTFYANAMGWYRQAPGKERELVAAISRSGGRTYYADSVKGRFTISRDNAKNTVFLQMNSLKPEDTAVYYCAKAYHHSEFDYWGQGTQVTVSS”, the “polyreactivity (PSR sort gate)” value is recorded as “high polyreactivity”.

As for “QVQLVESGGGLVQAGGSLRLSCAASGSTFYANAMGWYRQAPGKERELVADISFSGASTFYADSVKGRFTISRDNAKNTVYLQMNSLKPEDTAVYYCATDNPSVVGFDYWGQGTQVTVSS”, the “polyreactivity (PSR sort gate)” value is reported as “low polyreactivity”.

In the case of “QVQLVESGGGLVQAGGSLRLSCAASGSTFYANDMGWYRQAPGKERELVASISLGDGSTYYADSVKGRFTISRDNAKNTVYLQMNSLKPEDTAVYYCAAGFYVWYWGFNYWGQGSQVTVSS”, the “polyreactivity (PSR sort gate)” value is “low polyreactivity”.

In the case of “QVQLVESGGGLVQAGGSLRLSCAASGSTFYAYAMGWYRQAPGKERELVAAIDSGGSTYYADSVKGRFTISRDNAKNTVYLQMNSLKPDDTAVYYCAVRHRYTRAYWGRDYWGQGTQVTVSS”, the “polyreactivity (PSR sort gate)” value is on record as “low polyreactivity”.

“QVQLVESGGGLVQAGGSLRLSCAASGSTFYAYAMGWYRQAPGKERELVAAISSSGGSTYYADSVKGRFTISRDNAKNTVYLQMNSLKPEDTAVYYCAAYDSVQKYWILGFDYWGQGTQVTVSS”: the “polyreactivity (PSR sort gate)” value is given as “low polyreactivity”.
